Test results: patent US20240279318A1 (NANJING LEGEND BIOTECH, published 2024)

Columns and labels:
[1] = biological target: T1, AFP158/HLA-A*02:01 complex (human); assay: SPR, fold vs AS170036 VL1VH1
T1 construct: flowed as analyte in SPR
Experimental: (§1) The experiment was carried out as follows. The crude scFv protein were captured onto the sensorchip. Different concentrations (320, 160, 40 nM) of AFP158/HLA-A*02:01 complex flowed over the sensorchip surface, and were allowed to bind the antibody fragment for 100 s followed by injection of the running buffer to allow dissociation of the complex. On-rate (kd) and off-rate (kd) were calculated based on association and dissociation curve, and were used to estimate the equilibrium dissociation constant (KD).

[2] = biological target: T1, AFP158/HLA-A*02:01 complex; assay: SPR, crude scFv captured, pMHC analyte;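 also: Peptide-MHC complex at several concentrations passed over captured scFv, association then buffer-driven dissociation, on- and off-rates fitted from the curves and KD estimated from them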
Experimental: as §1

Row | Affinity increase [1] [fold] | Kd [2] [µM] | koff [2] [s⁻¹] | kon [2] [M⁻¹ s⁻¹] | Binder
1 | 2.3 | 0.11 | 0.027 | 260000 | AS170036 VL1VH1-VLH98A (scFv) scFv: QSALTQPRSVSGSPGQSVTISCAGTSSDVGSENYVSWYQQHPGKAPKLMIYQVNKRASGVPDRFSGSKSGNTASLTISGLQAEDEADYYCASYRSSDANIVFGGGTKLTVLGGGGSGGGGSGGGGSEVQLVESGGGLVQPGGSLRLSCAASGFTFSSYAMSWVRQAPGKGLEWVSTINSGTGSPYYADSVKGRFTISRDNSKNTLYLQMNSLRAEDTAVYYCAKNFFDGSWFLGPPAMDYWGQGTLVTVSSHHHHHH
2 | 3.2 | 0.078 | 0.018 | 230000 | AS170036 VL1VH1-VLH98V (scFv) scFv: QSALTQPRSVSGSPGQSVTISCAGTSSDVGSENYVSWYQQHPGKAPKLMIYQVNKRASGVPDRFSGSKSGNTASLTISGLQAEDEADYYCASYRSSDVNIVFGGGTKLTVLGGGGSGGGGSGGGGSEVQLVESGGGLVQPGGSLRLSCAASGFTFSSYAMSWVRQAPGKGLEWVSTINSGTGSPYYADSVKGRFTISRDNSKNTLYLQMNSLRAEDTAVYYCAKNFFDGSWFLGPPAMDYWGQGTLVTVSSHHHHHH
3 | 2.9 | 0.084 | 0.025 | 290000 | AS170036 VL1VH1-VLH98T (scFv) scFv: QSALTQPRSVSGSPGQSVTISCAGTSSDVGSENYVSWYQQHPGKAPKLMIYQVNKRASGVPDRFSGSKSGNTASLTISGLQAEDEADYYCASYRSSDTNIVFGGGTKLTVLGGGGSGGGGSGGGGSEVQLVESGGGLVQPGGSLRLSCAASGFTFSSYAMSWVRQAPGKGLEWVSTINSGTGSPYYADSVKGRFTISRDNSKNTLYLQMNSLRAEDTAVYYCAKNFFDGSWFLGPPAMDYWGQGTLVTVSSHHHHHH
4 | 3.3 | 0.075 | 0.016 | 220000 | AS170036 VL1VH1-VLH98Q (scFv) scFv: QSALTQPRSVSGSPGQSVTISCAGTSSDVGSENYVSWYQQHPGKAPKLMIYQVNKRASGVPDRFSGSKSGNTASLTISGLQAEDEADYYCASYRSSDQNIVFGGGTKLTVLGGGGSGGGGSGGGGSEVQLVESGGGLVQPGGSLRLSCAASGFTFSSYAMSWVRQAPGKGLEWVSTINSGTGSPYYADSVKGRFTISRDNSKNTLYLQMNSLRAEDTAVYYCAKNFFDGSWFLGPPAMDYWGQGTLVTVSSHHHHHH
5 | 3.3 | 0.074 | 0.033 | 450000 | AS170036 VL1VH1-VLH98F (scFv) scFv: QSALTQPRSVSGSPGQSVTISCAGTSSDVGSENYVSWYQQHPGKAPKLMIYQVNKRASGVPDRFSGSKSGNTASLTISGLQAEDEADYYCASYRSSDFNIVFGGGTKLTVLGGGGSGGGGSGGGGSEVQLVESGGGLVQPGGSLRLSCAASGFTFSSYAMSWVRQAPGKGLEWVSTINSGTGSPYYADSVKGRFTISRDNSKNTLYLQMNSLRAEDTAVYYCAKNFFDGSWFLGPPAMDYWGQGTLVTVSSHHHHHH
6 | 3.5 | 0.07 | 0.017 | 240000 | AS170036 VL1VH1-VLH98P (scFv) scFv: QSALTQPRSVSGSPGQSVTISCAGTSSDVGSENYVSWYQQHPGKAPKLMIYQVNKRASGVPDRFSGSKSGNTASLTISGLQAEDEADYYCASYRSSDPNIVFGGGTKLTVLGGGGSGGGGSGGGGSEVQLVESGGGLVQPGGSLRLSCAASGFTFSSYAMSWVRQAPGKGLEWVSTINSGTGSPYYADSVKGRFTISRDNSKNTLYLQMNSLRAEDTAVYYCAKNFFDGSWFLGPPAMDYWGQGTLVTVSSHHHHHH
7 | 3.1 | 0.078 | 0.018 | 230000 | AS170036 VL1VH1-VLH98I (scFv) scFv: QSALTQPRSVSGSPGQSVTISCAGTSSDVGSENYVSWYQQHPGKAPKLMIYQVNKRASGVPDRFSGSKSGNTASLTISGLQAEDEADYYCASYRSSDINIVFGGGTKLTVLGGGGSGGGGSGGGGSEVQLVESGGGLVQPGGSLRLSCAASGFTFSSYAMSWVRQAPGKGLEWVSTINSGTGSPYYADSVKGRFTISRDNSKNTLYLQMNSLRAEDTAVYYCAKNFFDGSWFLGPPAMDYWGQGTLVTVSSHHHHHH
